Assay results reported in publication PMC9825171 (Nucleic Acids Research, 2022).

Experiments:
[1] = target: RBPJ (53–474) (Mus musculus, UniProt P31266); assay: ITC binding of L3MBTL3 constructs and peptides to native RBPJ; settings: 25°C; for Kd / K: 50 mM sodium phosphate pH 6.5, 150 mM NaCl, one site binding model; for Kd: mean of at least three independent experiments; for K: mean of at least three independent experiments ± SD, NBD = no binding detected
[2] = target: RBPJ; settings: read-out: affinity for RBPJ; ref [19],[20]; cited from earlier work
[3] = pH 6.5, mean of at least three independent experiments ± SD

Chain of RBPJ (53–474) (P31266 53-474): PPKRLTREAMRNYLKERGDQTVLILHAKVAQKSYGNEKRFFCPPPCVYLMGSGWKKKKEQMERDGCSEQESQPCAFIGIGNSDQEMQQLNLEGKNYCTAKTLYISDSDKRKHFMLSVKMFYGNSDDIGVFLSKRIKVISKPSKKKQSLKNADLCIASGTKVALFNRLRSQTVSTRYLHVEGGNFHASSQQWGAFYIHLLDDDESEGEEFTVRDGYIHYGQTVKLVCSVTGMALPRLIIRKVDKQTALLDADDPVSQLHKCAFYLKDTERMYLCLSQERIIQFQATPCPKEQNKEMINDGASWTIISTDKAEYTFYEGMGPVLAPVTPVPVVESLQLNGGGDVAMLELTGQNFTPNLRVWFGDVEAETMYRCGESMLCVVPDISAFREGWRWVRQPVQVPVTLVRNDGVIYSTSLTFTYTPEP

Molecule	Kd [1] [nM]	ΔG° [1, 3] [kcal/mol]	–TΔS° [1, 3] [kcal/mol]	binding to RBPJ, in words [1]	ΔH° [1, 3] [kcal/mol]	K [1]	Kd [2] [nM]
RITA1: corepressor, RBPJ interacting Tubulin associated protein 1 (protein, UniProt Q96K30 1-269, looked up) RBPJ-interacting and …: MKTPVELAVSGMQTLGLQHRCRGGYRVKARTSYVDETLFGSPAGTRPTPPDFDPPWVEKANRTRGVGKEASKALGAKGSCETTPSRGSTPTLTPRKKNKYRPISHTPSYCDESLFGSRSEGASFGAPRMAKGDAAKLRALLWTPPPTPRGSHSPRPREAPLRAIHPAGPSKTEPGPAADSQKLSMGGLHSSRPLKRGLSHSLTHLNVPSTGHPATSAPHTNGPQDLRPSTSGVTFRSPLVTSRARSVSISVPSTPRRGGATQKPKPPWK							~1000
1–197: human L3MBTL3 fragment, the N-terminus (1–197) (protein, UniProt Q96JM7 1-197, looked up, fragment) MTESASSTSGQEFDVFSVMDWKDGVGTLPGSDLKFRVNEFGALEVITDENEMENVKKATATTTWMVPTAQEAPTSPPSSRPVFPPAYWTSPPGCPTVFSEKTGMPFRLKDPVKVEGLQFCENCCQYGNVDECLSGGNYCSQNCARHIKDKDQKEERDVEEDNEEEDPKCSRKKKPKLSLKADTKEDGEERDDEMENK	1500	-7.9 ± 0.03	-0.7 ± 0.1		-7.2 ± 0.1	6.6 ± 0.3 × 10^5 M^−^1	

The next lines start with results.

Kd [1] [nM]	ΔG° [1, 3] [kcal/mol]	–TΔS° [1, 3] [kcal/mol]	binding to RBPJ, in words [1]	ΔH° [1, 3] [kcal/mol]	Molecule	K [1]	Kd [2] [nM]
1900	-7.7 ± 0.2	2.9 ± 1.8			1–523: human L3MBTL3 fragment, N-terminal region through the MBT domains (residues 1–523) (protein, UniProt Q96JM7 1-523, looked up, fragment) MTESASSTSGQEFDVFSVMDWKDGVGTLPGSDLKFRVNEFGALEVITDENEMENVKKATATTTWMVPTAQEAPTSPPSSRPVFPPAYWTSPPGCPTVFSEKTGMPFRLKDPVKVEGLQFCENCCQYGNVDECLSGGNYCSQNCARHIKDKDQKEERDVEEDNEEEDPKCSRKKKPKLSLKADTKEDGEERDDEMENKQDVRILRGSQRARRKRRGDSAVLKQGLPPKGKKAWCWASYLEEEKAVAVPAKLFKEHQSFPYNKNGFKVGMKLEGVDPEHQSVYCVLTVAEVCGYRIKLHFDGYSDCYDFWVNADALDIHPVGWCEKTGHKLHPPKGYKEEEFNWQTYLKTCKAQAAPKSLFENQNITVIPSGFRVGMKLEAVDKKNPSFICVATVTDMVDNRFLVHFDNWDESYDYWCEASSPHIHPVGWCKEHRRTLITPPGYPNVKHFSWDKYLEETNSLPAPARAFKVKPPHGFQKKMKLEVVDKRNPMFIRVATVADTDDHRVKVHFDGWNNCYDYWIDAD	5.4 ± 0.9 × 10^5 M^−^1	
			no detectable binding		198–523: human L3MBTL3 fragment, the MBT domains (198–523) (protein, UniProt Q96JM7 198-523, looked up, fragment) QDVRILRGSQRARRKRRGDSAVLKQGLPPKGKKAWCWASYLEEEKAVAVPAKLFKEHQSFPYNKNGFKVGMKLEGVDPEHQSVYCVLTVAEVCGYRIKLHFDGYSDCYDFWVNADALDIHPVGWCEKTGHKLHPPKGYKEEEFNWQTYLKTCKAQAAPKSLFENQNITVIPSGFRVGMKLEAVDKKNPSFICVATVTDMVDNRFLVHFDNWDESYDYWCEASSPHIHPVGWCKEHRRTLITPPGYPNVKHFSWDKYLEETNSLPAPARAFKVKPPHGFQKKMKLEVVDKRNPMFIRVATVADTDDHRVKVHFDGWNNCYDYWIDAD	NBD	
